The results in this text go back to PMC8571288.

Data set [1] addresses T1, RAD51 (Homo sapiens, UniProt Q06609 1-339). Briefly: pull-down; RPA-coated DNA plus CST; smFRET: 25 mM Tris-HCl pH 7.5, 0.5 mM EDTA, 10% glycerol, 50 or 150 mM KCl (temperature not stated); pull-down: 35 mM Tris-HCl pH 7.5, 10% glycerol, 0.01% Igepal, 1 mM 2-ME, 1 mM ATP, 2.5 mM MgCl2, 50 or 150 mM KCl, 37 C; EMSA: 35 mM Tris-HCl pH 7.5, 1 mM DTT, 2.5 mM MgCl2, 100 ng/uL BSA, 50 mM KCl, 37 C. As to conditions: protein: recombinant; chain copies: 10; label: 5' biotin, on streptavidin beads.

Data set [2] addresses RPA complex (Homo sapiens, UniProt P27694;P15927;P35244 1-616;1-270;1-121). Briefly: pull-down; 50 mM KCl; unchanged by CST; smFRET: 25 mM Tris-HCl pH 7.5, 0.5 mM EDTA, 10% glycerol, 50 or 150 mM KCl (temperature not stated); pull-down: 35 mM Tris-HCl pH 7.5, 10% glycerol, 0.01% Igepal, 1 mM 2-ME, 1 mM ATP, 2.5 mM MgCl2, 50 or 150 mM KCl, 37 C; EMSA: 35 mM Tris-HCl pH 7.5, 1 mM DTT, 2.5 mM MgCl2, 100 ng/uL BSA, 50 mM KCl, 37 C. As to conditions: protein: recombinant; copies: 1;1;1; label: 5' biotin, on streptavidin beads.

Data set [3] has as its target CST complex (CTC1-STN1-TEN1) (Homo sapiens, UniProt Q2NKJ3;Q9H668;Q86WV5 1-1217;1-368;1-123). Briefly: pull-down; RPA-coated DNA, 50 mM KCl; smFRET: 25 mM Tris-HCl pH 7.5, 0.5 mM EDTA, 10% glycerol, 50 or 150 mM KCl (temperature not stated); pull-down: 35 mM Tris-HCl pH 7.5, 10% glycerol, 0.01% Igepal, 1 mM 2-ME, 1 mM ATP, 2.5 mM MgCl2, 50 or 150 mM KCl, 37 C; EMSA: 35 mM Tris-HCl pH 7.5, 1 mM DTT, 2.5 mM MgCl2, 100 ng/uL BSA, 50 mM KCl, 37 C. As to conditions: protein: recombinant; tags: FLAG-CTC1, TEN1-His6; copies: 1;1;1; label: 5' biotin, on streptavidin beads. (In general: Mobility shift assays separate free from complexed probe on a gel.)

In data set [4] the target is T1, RAD51. Briefly: negative-stain EM; 150 mM KCl; naked DNA, median filament 96.41 nm; smFRET: 25 mM Tris-HCl pH 7.5, 0.5 mM EDTA, 10% glycerol, 50 or 150 mM KCl (temperature not stated); pull-down: 35 mM Tris-HCl pH 7.5, 10% glycerol, 0.01% Igepal, 1 mM 2-ME, 1 mM ATP, 2.5 mM MgCl2, 50 or 150 mM KCl, 37 C; EMSA: 35 mM Tris-HCl pH 7.5, 1 mM DTT, 2.5 mM MgCl2, 100 ng/uL BSA, 50 mM KCl, 37 C. As to conditions: protein: recombinant; chain copies: 10.

Data set [5] has as its target SNAP649-CST (Homo sapiens, UniProt Q2NKJ3;Q9H668;Q86WV5 1-1217;1-368;1-123). Briefly: CoSMoS; EGFP-RPA-coated DNA, 50 mM KCl, 13.5 nM; smFRET: 25 mM Tris-HCl pH 7.5, 0.5 mM EDTA, 10% glycerol, 50 or 150 mM KCl (temperature not stated); pull-down: 35 mM Tris-HCl pH 7.5, 10% glycerol, 0.01% Igepal, 1 mM 2-ME, 1 mM ATP, 2.5 mM MgCl2, 50 or 150 mM KCl, 37 C; EMSA: 35 mM Tris-HCl pH 7.5, 1 mM DTT, 2.5 mM MgCl2, 100 ng/uL BSA, 50 mM KCl, 37 C. As to conditions: protein: recombinant; tags: SNAP (SNAP-Surface 649 label); copies: 1;1;1; label: 5' Cy3 and 3' biotin on Oligo 10; 3' overhang 80 nt.

Data set [6] addresses EGFP-RPA (Homo sapiens, UniProt P27694;P15927;P35244 1-616;1-270;1-121). Briefly: CoSMoS; 50 mM KCl, 10 nM; ~85% of DNA foci RPA-bound; 1-4 RPA per DNA; smFRET: 25 mM Tris-HCl pH 7.5, 0.5 mM EDTA, 10% glycerol, 50 or 150 mM KCl (temperature not stated); pull-down: 35 mM Tris-HCl pH 7.5, 10% glycerol, 0.01% Igepal, 1 mM 2-ME, 1 mM ATP, 2.5 mM MgCl2, 50 or 150 mM KCl, 37 C; EMSA: 35 mM Tris-HCl pH 7.5, 1 mM DTT, 2.5 mM MgCl2, 100 ng/uL BSA, 50 mM KCl, 37 C. As to conditions: protein: recombinant; tags: EGFP; copies: 1;1;1; label: 5' Cy3 and 3' biotin on Oligo 10; 3' overhang 80 nt.

T1 sequence (Q06609 whole entry): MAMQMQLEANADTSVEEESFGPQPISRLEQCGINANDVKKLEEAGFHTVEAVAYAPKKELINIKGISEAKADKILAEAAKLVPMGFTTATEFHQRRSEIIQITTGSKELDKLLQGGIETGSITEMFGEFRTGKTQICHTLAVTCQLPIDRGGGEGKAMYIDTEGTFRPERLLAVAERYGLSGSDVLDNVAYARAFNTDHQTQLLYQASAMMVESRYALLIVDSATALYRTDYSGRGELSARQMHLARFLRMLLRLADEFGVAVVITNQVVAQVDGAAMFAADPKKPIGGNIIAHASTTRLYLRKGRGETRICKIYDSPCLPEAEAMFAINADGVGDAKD
Sequence of SNAP649-CST (Q2NKJ3 whole entry, chain 1 of 3): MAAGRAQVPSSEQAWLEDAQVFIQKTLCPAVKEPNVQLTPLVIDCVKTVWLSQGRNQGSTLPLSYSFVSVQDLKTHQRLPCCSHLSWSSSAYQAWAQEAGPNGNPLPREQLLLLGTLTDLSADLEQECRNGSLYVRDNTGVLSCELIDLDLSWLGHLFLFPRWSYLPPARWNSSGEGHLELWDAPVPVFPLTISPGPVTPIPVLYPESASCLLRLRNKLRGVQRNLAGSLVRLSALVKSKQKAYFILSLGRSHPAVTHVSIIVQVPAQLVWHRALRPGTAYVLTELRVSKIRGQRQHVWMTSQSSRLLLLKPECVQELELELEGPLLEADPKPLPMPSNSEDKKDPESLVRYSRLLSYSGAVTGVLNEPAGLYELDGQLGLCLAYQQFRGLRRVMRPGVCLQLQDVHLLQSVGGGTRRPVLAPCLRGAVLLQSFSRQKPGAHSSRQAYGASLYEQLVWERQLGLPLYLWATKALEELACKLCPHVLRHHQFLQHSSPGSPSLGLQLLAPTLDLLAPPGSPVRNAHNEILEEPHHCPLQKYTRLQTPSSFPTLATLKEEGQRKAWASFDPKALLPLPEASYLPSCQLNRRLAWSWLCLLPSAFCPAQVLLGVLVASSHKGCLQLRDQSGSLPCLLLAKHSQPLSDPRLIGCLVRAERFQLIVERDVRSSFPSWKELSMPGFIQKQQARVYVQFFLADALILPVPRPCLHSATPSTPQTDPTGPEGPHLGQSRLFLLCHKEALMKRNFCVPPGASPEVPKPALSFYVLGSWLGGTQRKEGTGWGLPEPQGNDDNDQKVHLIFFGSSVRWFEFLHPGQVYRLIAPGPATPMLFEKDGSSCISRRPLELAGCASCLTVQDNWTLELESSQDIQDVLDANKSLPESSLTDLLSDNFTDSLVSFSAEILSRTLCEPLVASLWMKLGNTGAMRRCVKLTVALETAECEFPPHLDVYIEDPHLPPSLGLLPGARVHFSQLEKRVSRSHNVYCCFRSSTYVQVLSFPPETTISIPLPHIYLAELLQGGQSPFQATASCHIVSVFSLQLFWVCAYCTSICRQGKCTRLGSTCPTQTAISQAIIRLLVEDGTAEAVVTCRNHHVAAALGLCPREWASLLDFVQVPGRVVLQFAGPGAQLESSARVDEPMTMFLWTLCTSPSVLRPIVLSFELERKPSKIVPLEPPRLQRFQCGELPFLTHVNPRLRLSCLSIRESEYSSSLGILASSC
Sequence of SNAP649-CST (Q9H668 whole entry, chain 2 of 3): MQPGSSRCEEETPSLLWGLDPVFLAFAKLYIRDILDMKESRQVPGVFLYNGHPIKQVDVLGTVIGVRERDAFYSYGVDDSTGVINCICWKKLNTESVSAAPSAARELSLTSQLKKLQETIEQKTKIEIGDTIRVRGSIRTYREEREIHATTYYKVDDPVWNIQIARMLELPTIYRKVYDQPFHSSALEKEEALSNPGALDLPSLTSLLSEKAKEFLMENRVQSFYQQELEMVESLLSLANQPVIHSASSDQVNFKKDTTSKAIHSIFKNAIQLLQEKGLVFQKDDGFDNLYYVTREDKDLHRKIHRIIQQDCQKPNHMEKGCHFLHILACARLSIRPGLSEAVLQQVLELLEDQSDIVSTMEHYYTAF
Sequence of SNAP649-CST (Q86WV5 whole entry, chain 3 of 3): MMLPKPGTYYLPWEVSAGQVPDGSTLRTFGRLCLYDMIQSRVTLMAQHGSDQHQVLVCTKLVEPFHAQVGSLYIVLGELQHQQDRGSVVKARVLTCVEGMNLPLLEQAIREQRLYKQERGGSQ
Sequence of CST complex (CTC1-STN1-TEN1) (Q2NKJ3 whole entry, chain 1 of 3): as the sequence (Q2NKJ3 whole entry, chain 1 of 3) above
Sequence of CST complex (CTC1-STN1-TEN1) (Q9H668 whole entry, chain 2 of 3): as the sequence (Q9H668 whole entry, chain 2 of 3) above
Sequence of CST complex (CTC1-STN1-TEN1) (Q86WV5 whole entry, chain 3 of 3): as the sequence (Q86WV5 whole entry, chain 3 of 3) above
Sequence of RPA complex (P27694 whole entry, chain 1 of 3): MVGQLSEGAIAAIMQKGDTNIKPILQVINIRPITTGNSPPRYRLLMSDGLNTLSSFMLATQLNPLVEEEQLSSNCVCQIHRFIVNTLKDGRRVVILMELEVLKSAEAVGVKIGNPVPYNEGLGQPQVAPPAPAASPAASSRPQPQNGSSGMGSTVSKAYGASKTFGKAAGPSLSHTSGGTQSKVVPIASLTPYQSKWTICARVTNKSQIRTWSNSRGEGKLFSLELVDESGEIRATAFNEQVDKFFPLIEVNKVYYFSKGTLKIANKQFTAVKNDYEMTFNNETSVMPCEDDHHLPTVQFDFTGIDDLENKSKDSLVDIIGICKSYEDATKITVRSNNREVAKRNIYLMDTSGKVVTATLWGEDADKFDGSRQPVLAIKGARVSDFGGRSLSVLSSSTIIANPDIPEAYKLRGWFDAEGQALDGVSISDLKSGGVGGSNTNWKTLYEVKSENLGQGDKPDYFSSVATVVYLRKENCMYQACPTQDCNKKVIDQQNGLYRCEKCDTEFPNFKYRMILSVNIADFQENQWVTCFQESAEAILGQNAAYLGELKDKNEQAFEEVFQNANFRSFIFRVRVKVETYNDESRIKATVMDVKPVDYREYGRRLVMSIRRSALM
Sequence of RPA complex (P15927 whole entry, chain 2 of 3): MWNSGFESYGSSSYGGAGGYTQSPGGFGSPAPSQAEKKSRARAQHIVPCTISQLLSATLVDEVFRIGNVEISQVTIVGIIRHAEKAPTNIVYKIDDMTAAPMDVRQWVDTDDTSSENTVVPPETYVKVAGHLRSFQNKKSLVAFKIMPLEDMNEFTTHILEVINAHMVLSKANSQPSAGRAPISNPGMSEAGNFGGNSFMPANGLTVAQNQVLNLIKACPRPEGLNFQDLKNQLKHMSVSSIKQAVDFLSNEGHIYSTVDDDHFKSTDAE
Sequence of RPA complex (P35244 whole entry, chain 3 of 3): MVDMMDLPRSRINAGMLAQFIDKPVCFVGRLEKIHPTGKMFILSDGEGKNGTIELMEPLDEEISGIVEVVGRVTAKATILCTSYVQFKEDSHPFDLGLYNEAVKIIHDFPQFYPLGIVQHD
Sequence of EGFP-RPA (P27694 whole entry, chain 1 of 3): as the sequence (P27694 whole entry, chain 1 of 3) above
Sequence of EGFP-RPA (P15927 whole entry, chain 2 of 3): as the sequence (P15927 whole entry, chain 2 of 3) above
Sequence of EGFP-RPA (P35244 whole entry, chain 3 of 3): as the sequence (P35244 whole entry, chain 3 of 3) above

B1: 80-nt ssDNA, biotinylated Oligo 1 (ssDNA)
DNA: TTATGTTCATTTTTTATATCCTTTACTTTATTTTCTCTGTTTATTCATTTACTTATTTTGTATTATCCTTATCTTATTTA
For the molecule B1, the binding result in data set [1], in data set [2] and in data set [3] was “binds” throughout.

B2: 80-nt ssDNA Oligo 1 (ssDNA)
DNA: TTATGTTCATTTTTTATATCCTTTACTTTATTTTCTCTGTTTATTCATTTACTTATTTTGTATTATCCTTATCTTATTTA
For the molecule B2, the binding result in data set [4] is listed as “binds”.

B3: 80-nt ssDNA overhang (Oligo 9+10) (mixed)
DNA 1: TGGCGACGGCAGCGAGGCTTATGTTCATTTTTTATATCCTTTACTTTATTTTCTCTGTTTATTCATTTACTTATTTTGTATTATCCTTATCTTATTTA
DNA 2: GCCTCGCTGCCGTCGCCA
B3: the binding result in data set [5] and in data set [6] was “binds” in each case.
